The source of these data is PMC8920335, “A CGA/EGFR/GATA2 positive feedback circuit confers chemoresistance in gastric cancer” (The Journal of Clinical Investigation, 2022).

What is called Kd is the constant that tells how readily two partners part at equilibrium.

The test has as its target T1, recombinant ECD of EGFR (UniProt P00533 25-645).
T1 construct: Epidermal growth factor receptor, recombinant extracellular domain immobilised for SPR; Source, limits and tags may be told in the Supplemental Methods
The test is described as follows: SPR; BIAcore S200, room temperature; recombinant ECD of EGFR immobilised on a CM5 chip by amine coupling; purified rCGA injected at 30 μL/min for 60 seconds, dissociation 100 seconds; 1:1 Langmuir binding model. The settings on record: both partners purified. In general terms: SPR reads the build-up and loss of mass on a sensor chip optically.

B1: recombinant human CGA (glycoprotein hormone α polypeptide), 6×His tag removed (natural protein)
chain: not shown
notes: Glycoprotein hormones alpha chain (CGA), human; CGA ORF in a modified pHL-sec vector, secreted protein; engineered enterokinase site at the C-terminus before the 6×His tag; Made in mammalian cells; Residues of the enterokinase site may be left at the C-terminus after digestion; also called rCGA; α-subunit of glycoprotein hormones; not shown: His6, C-terminal, cleaved
Take B1: the Kd amounted to 11.8 µM.
